Assays:
Assay in all cases: co-IP
GFP-tagged GRIP1 = GFP-tagged GRIP1 (UniProt P97879)
[1] = molecular target: Syntaxin13 (Stx13), endogenous in HEK cells (human (endogenous in HEK293T)) (UniProt Q86Y82)
GFP-tagged Rab4 = GFP-tagged Rab4 (UniProt P20338)
UniProt P20338, sequence (P20338 whole entry): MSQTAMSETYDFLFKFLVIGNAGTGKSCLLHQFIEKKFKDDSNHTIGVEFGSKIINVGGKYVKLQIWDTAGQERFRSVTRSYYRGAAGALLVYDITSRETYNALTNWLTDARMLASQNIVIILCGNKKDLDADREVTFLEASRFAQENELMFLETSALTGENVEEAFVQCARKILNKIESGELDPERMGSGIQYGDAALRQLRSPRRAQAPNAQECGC

UniProt P97879, sequence (P97879 whole entry): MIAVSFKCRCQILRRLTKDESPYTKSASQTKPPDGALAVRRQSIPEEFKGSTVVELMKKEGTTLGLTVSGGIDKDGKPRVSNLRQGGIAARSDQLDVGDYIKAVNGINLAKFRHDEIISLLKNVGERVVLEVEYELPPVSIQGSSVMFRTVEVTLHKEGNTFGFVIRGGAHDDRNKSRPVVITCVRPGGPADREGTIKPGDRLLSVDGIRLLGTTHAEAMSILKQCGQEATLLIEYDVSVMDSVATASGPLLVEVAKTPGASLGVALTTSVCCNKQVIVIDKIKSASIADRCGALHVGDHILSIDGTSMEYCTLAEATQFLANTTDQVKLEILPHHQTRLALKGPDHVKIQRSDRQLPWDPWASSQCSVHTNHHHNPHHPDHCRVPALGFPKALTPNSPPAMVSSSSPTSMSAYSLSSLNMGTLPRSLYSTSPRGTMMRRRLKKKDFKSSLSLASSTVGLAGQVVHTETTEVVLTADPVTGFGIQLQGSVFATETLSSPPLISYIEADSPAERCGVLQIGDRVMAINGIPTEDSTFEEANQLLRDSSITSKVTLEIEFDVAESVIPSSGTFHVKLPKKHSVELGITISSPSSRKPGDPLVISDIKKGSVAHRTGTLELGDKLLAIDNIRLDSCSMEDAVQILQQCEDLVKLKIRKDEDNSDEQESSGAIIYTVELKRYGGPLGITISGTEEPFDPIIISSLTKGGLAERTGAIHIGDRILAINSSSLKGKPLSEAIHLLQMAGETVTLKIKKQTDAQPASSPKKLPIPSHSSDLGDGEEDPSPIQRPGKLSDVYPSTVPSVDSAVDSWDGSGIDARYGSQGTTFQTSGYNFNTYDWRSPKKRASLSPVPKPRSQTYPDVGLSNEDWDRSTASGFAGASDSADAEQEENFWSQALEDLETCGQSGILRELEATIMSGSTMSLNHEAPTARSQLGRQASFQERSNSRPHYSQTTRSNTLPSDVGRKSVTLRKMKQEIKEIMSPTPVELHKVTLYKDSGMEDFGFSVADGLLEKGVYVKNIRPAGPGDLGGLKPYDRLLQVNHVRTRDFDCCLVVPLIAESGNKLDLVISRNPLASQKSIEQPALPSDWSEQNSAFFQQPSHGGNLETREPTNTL
UniProt Q86Y82, sequence (Q86Y82 whole entry): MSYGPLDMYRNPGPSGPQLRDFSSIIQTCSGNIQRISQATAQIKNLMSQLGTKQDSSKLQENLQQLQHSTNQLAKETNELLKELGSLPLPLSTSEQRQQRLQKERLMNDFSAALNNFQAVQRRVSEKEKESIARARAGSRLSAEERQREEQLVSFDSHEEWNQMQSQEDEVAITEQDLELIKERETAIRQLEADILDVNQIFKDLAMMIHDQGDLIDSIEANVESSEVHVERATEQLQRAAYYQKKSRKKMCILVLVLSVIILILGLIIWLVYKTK

Substance: GRASP1 GBD deletion mutant (dGBD) (from UniProt Q8VD04 1-806) (natural protein)
- GRASP1 co-precipitated with GRIP1, % WT (GFP-tagged GRIP1): 42.6 % WT
- GRASP1 co-precipitated with Stx13, % WT [1]: 62.7 % WT
- GRASP1 co-precipitated with Rab4, % WT (GFP-tagged Rab4): 34.8 % WT

Substance: GRASP1 R822Q (intellectual disability mutant) (from UniProt Q8VD04 1-806) (natural protein)
- GRASP1 co-precipitated with GRIP1, % WT (GFP-tagged GRIP1): 43.7 % WT
- GRASP1 co-precipitated with Stx13, % WT [1]: 83.2 % WT
- GRASP1 co-precipitated with Rab4, % WT (GFP-tagged Rab4): 105 % WT

Substance: GRASP1 S73N (intellectual disability mutant) (from UniProt Q8VD04 1-806) (natural protein)
- GRASP1 co-precipitated with GRIP1, % WT (GFP-tagged GRIP1): 206 % WT
- GRASP1 co-precipitated with Stx13, % WT [1]: 553 % WT
- GRASP1 co-precipitated with Rab4, % WT (GFP-tagged Rab4): 98.2 % WT
